{"source": "patent US20120244144A1", "about": "(University of Texas, published 2012)", "binders": {"B1": {"name": "monoclonal antibody 1B7 (antibody)", "chain": "DIQMTQSPALMSASPGEKVTMTCSASSSVSFMYWYQQKPRSSPKPWIYLTSNLPSGVPARFSGSGSGTSYSLTISSMEAEDAATYYCQQWSSHPPTFGSGTKLEIKRGGGGSGGGGSGGGGSGGGGSEVQLQQSGSELVRPGASVKLSCKASGYKFTSYWMHWVKQRPGQGLEWIGNIFPGSGSTNYDEKFNSKATLTVDTSSNTAYMQLSSLTSEDSAVYYCTRWLSGAYFDYWGQGTTLTVSSASGA", "notes": "also called mAb 1B7; 1B7 mAb"}}, "key": {"[1]": {"biological_target": "T1, PTx-S1A (1-220) (Bordetella pertussis, UniProt P04977 36-255, M194I)", "T1 sequence": "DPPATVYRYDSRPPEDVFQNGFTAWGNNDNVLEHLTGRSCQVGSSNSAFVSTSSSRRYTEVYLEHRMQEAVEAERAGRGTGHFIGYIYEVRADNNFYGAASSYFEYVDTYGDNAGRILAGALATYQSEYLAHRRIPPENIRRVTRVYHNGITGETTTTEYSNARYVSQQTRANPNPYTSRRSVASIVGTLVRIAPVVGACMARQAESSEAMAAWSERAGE", "test": "SPR"}, "[2]": {"biological_target": "T2, PTx-S1D (1-220) (Bordetella pertussis, UniProt P04977 35-254)", "T2 chain": "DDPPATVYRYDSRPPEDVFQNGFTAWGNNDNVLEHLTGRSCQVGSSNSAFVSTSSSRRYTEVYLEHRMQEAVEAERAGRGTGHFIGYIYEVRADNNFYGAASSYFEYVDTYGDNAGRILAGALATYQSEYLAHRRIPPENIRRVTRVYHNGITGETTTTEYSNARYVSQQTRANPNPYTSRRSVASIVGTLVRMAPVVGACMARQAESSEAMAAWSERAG", "test": "SPR"}, "[3]": {"biological_target": "pertussis toxin B-oligomer (Bordetella pertussis), P04978", "test": "ELISA repeated with mAb 1B7", "details": "remark: other sources report otherwise"}, "[4]": {"biological_target": "T3, PTx-S1-220 N176A (Bordetella pertussis strain Tohama I, UniProt P04977 36-255)", "T3 chain": "T2 chain with E34D, N176A, V198I", "test": "SPR, mAb 1B7 immobilised ~1000 RU"}, "[5]": {"biological_target": "T4, PTx-S1-220 E155A (Bordetella pertussis strain Tohama I, UniProt P04977 36-255, E155A)", "T4 sequence": "T1 sequence with E154A, I193M", "test": "SPR, mAb 1B7 immobilised ~1000 RU"}, "[6]": {"biological_target": "T5, PTx-S1-220 T158A (Bordetella pertussis strain Tohama I, UniProt P04977 36-255, T158A)", "T5 sequence": "T1 sequence with T157A, I193M", "test": "SPR, mAb 1B7 immobilised ~1000 RU"}, "[7]": {"biological_target": "T6, PTx-S1-220 Y166A (Bordetella pertussis strain Tohama I, UniProt P04977 36-255, Y166A)", "T6 sequence": "T1 sequence with Y165A, I193M", "test": "SPR, mAb 1B7 immobilised ~1000 RU"}, "[8]": {"biological_target": "T7, PTx-S1-220 Y148A (Bordetella pertussis strain Tohama I, UniProt P04977 36-255, Y148A)", "T7 sequence": "T1 sequence with Y147A, I193M", "test": "SPR, mAb 1B7 immobilised ~1000 RU"}, "[9]": {"biological_target": "T8, PTx-S1-220 N150A (Bordetella pertussis strain Tohama I, UniProt P04977 36-255, N150A)", "T8 sequence": "T1 sequence with N149A, I193M", "test": "SPR, mAb 1B7 immobilised ~1000 RU"}, "[10]": {"biological_target": "PTx-S1-220, truncated recombinant S1 subunit (residues 1-220) (Bordetella pertussis strain Tohama I), P04977", "test": "SPR BIAcore 3000, mAb 1B7 immobilised ~1000 RU", "details": "remark: other sources report otherwise"}, "[11]": {"biological_target": "pertussis toxin B-oligomer (Bordetella pertussis), P04978", "test": "SPR BIAcore 3000, mAb 1B7 immobilised ~1000 RU", "details": "remark: other sources report otherwise"}, "[12]": {"biological_target": "pertussis toxin holotoxin (Bordetella pertussis), P04977", "test": "SPR BIAcore 3000, mAb 1B7 immobilised ~1000 RU", "details": "remark: other sources report otherwise"}, "[13]": {"biological_target": "pertussis toxin holotoxin (Bordetella pertussis), P04977", "test": "competition ELISA (Friguet), 5 nM antibody, soluble PT", "details": "remark: other sources report otherwise"}}, "note": "Changes are numbered by the printed parent chain.", "data": [{"binder": "B1", "values": [{"measurement": "fold decrease in off-rate versus WT PTx-S1-220", "setting": "[1]", "value": "~2", "unit": "fold"}, {"measurement": "fold decrease in off-rate versus WT PTx-S1-220", "setting": "[2]", "value": "~2", "unit": "fold"}, {"measurement": "EC50-PTx (%)", "setting": "[3]", "value": 30, "unit": "%"}, {"measurement": "koff", "setting": "[4]", "value": 0.0011, "unit": "s⁻¹"}, {"measurement": "koff", "setting": "[5]", "value": 0.0011, "unit": "s⁻¹"}, {"measurement": "koff", "setting": "[6]", "value": 0.0013, "unit": "s⁻¹"}, {"measurement": "koff", "setting": "[7]", "value": 0.0014, "unit": "s⁻¹"}, {"measurement": "koff", "setting": "[8]", "value": 0.029, "unit": "s⁻¹"}, {"measurement": "koff", "setting": "[9]", "value": 0.008, "unit": "s⁻¹"}, {"measurement": "koff", "setting": "[10]", "value": 0.0014, "unit": "s⁻¹"}, {"measurement": "koff", "setting": "[11]", "value": 0.0027, "unit": "s⁻¹"}, {"measurement": "koff", "setting": "[12]", "value": 0.0004, "unit": "s⁻¹"}, {"measurement": "Kd", "setting": "[13]", "value": 1.1, "unit": "nM"}]}]}
